Results on seven sequences are retold here after the supplement of paper PMC5998384.

Series [1] has as its system HeLa Kyoto. As to the kind of experiment: solubility change mitosis vs G1/S (difference of NP-40 vs SDS log2 ratios) (log2 ratio difference); higher = more soluble in mitosis.
Series [2] deals with HeLa Kyoto. Kind of series: melting temperature (median over replicates), in situ; higher = more thermally stable.
Series [3] deals with HeLa Kyoto. As to the kind of experiment: thermal stability score vs G1/S (z-score of summed log2 fold changes over temperatures); higher = more thermally stable than in G1/S.
The test system of series [4] is HeLa Kyoto. Kind of series: solubility in G1/S (NP-40 vs SDS abundance) (log2 ratio); higher = more soluble. To be noted: cell cycle stage: G1/S.
[5] abbreviates: cell cycle stage: early G1 (4.5 h after nocodazole release).
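For melting temperature (median over replicates), in situ in this document: HeLa Kyoto cells synchronized by double thymidine or nocodazole block, proteins quantified by TMT10plex mass spectrometry, three independent biological replicates.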
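For solubility change mitosis vs G1/S (difference of NP-40 vs SDS log2 ratios) in this document: synchronized HeLa Kyoto cells (double thymidine block for G1/S, nocodazole release for mitosis), protein amounts in NP-40 versus SDS lysates quantified by mass spectrometry, three biological replicates.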
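For solubility in G1/S (NP-40 vs SDS abundance) in this document: HeLa Kyoto cells arrested at G1/S by double thymidine block, proteins quantified by TMT10plex mass spectrometry in mild NP-40 versus SDS extracts, three biological replicates.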
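For thermal stability score vs G1/S (z-score of summed log2 fold changes over temperatures) in this document: synchronized HeLa Kyoto cells, proteins quantified by TMT10plex mass spectrometry, three biological replicates, mitosis taken 0.5 h after nocodazole release, G1/S directly after double thymidine block.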

Turning to “MPHRKKKPFIEKKKAVSFHLVHRSQRDPLAADESAPQRVLLPTQKIDNEERRAEQRKYGVFFDDDYDYLQHLKEPSGPSELIPSSTFSAHNRREEKEETLVIPSTGIKLPSSVFASEFEEDVGLLNKAAPVSGPRLDFDPDIVAALDDDFDFDDPDNLLEDDFILQANKATGEEEGMDIQKSENEDDSEWEDVDDEKGDSNDDYDSAGLLSDEDCMSVPGKTHRAIADHLFWSEETKSRFTEYSMTSSVMRRNEQLTLHDERFEKFYEQYDDDEIGALDNAELEGSIQVDSNRLQEVLNDYYKEKAENCVKLNTLEPLEDQDLPMNELDESEEEEMITVVLEEAKEKWDCESICSTYSNLYNHPQLIKYQPKPKQIRISSKTGIPLNVLPKKGLTAKQTERIQMINGSDLPKVSTQPRSKNESKEDKRARKQAIKEERKERRVEKKANKLAFKLEKRRQEKELLNLKKNVEGLKL [LTV1]”, the “solubility change mitosis (log2)” value with HeLa Kyoto [1] was -0.0961. Also, the melting temperature with HeLa Kyoto [2] (cell cycle stage: G1/S) turned out to be 50.1 °C; with HeLa Kyoto [2] (cell cycle stage: mitosis), 48.8 °C. In addition, the thermal stability score with HeLa Kyoto [3] (setting [5]) was -2.27; with HeLa Kyoto [3] (cell cycle stage: mitosis) it was -0.672. The “solubility in G1/S (log2)” value with HeLa Kyoto [4] was -0.271.

Turning to “MPHSYPALSAEQKKELSDIALRIVAPGKGILAADESVGSMAKRLSQIGVENTEENRRLYRQVLFSADDRVKKCIGGVIFFHETLYQKDDNGVPFVRTIQDKGIVVGIKVDKGVVPLAGTDGETTTQGLDGLSERCAQYKKDGADFAKWRCVLKISERTPSALAILENANVLARYASICQQNGIVPIVEPEILPDGDHDLKRCQYVTEKVLAAVYKALSDHHVYLEGTLLKPNMVTPGHACPIKYTPEEIAMATVTALRRTVPPAVPGVTFLSGGQSEEEASFNLNAINRCPLPRPWALTFSYGRALQASALNAWRGQRDNAGAATEEFIKRAEVNGLAAQGKYEGSGEDGGAAAQSLYIANHAY [ALDOC]”, the “solubility change mitosis (log2)” value with HeLa Kyoto [1] is -0.0816. Further, the melting temperature in the series with HeLa Kyoto [2] (cell cycle stage: G1/S) came out at 56.9 °C; in the series with HeLa Kyoto [2] (cell cycle stage: mitosis), 57 °C. The thermal stability score in the series with HeLa Kyoto [3] (setting [5]) is -1.31; in the series on HeLa Kyoto [3] (cell cycle stage: mitosis), -2.38. The “solubility in G1/S (log2)” value in the series on HeLa Kyoto [4] is 0.202.

As to “MPKKAKPTGSGKEEGPAPCKQMKLEAAGGPSALNFDSPSSLFESLISPIKTETFFKEFWEQKPLLIQRDDPALATYYGSLFKLTDLKSLCSRGMYYGRDVNVCRCVNGKKKVLNKDGKAHFLQLRKDFDQKRATIQFHQPQRFKDELWRIQEKLECYFGSLVGSNVYITPAGSQGLPPHYDDVEVFILQLEGEKHWRLYHPTVPLAREYSVEAEERIGRPVHEFMLKPGDLLYFPRGTIHQADTPAGLAHSTHVTISTYQNNSWGDFLLDTISGLVFDTAKEDVELRTGIPRQLLLQVESTTVATRRLSGFLRTLADRLEGTKELLSSDMKKDFIMHRLPPYSAGDGAELSTPGGKLPRLDSVVRLQFKDHIVLTVLPDQDQSDEAQEKMVYIYHSLKNSRETHMMGNEEETEFHGLRFPLSHLDALKQIWNSPAISVKDLKLTTDEEKESLVLSLWTECLIQVV [MINA]”, the “solubility change mitosis (log2)” value in the series on HeLa Kyoto [1] is -0.0273. In addition, the values for the melting temperature in the series on HeLa Kyoto [2] (cell cycle stage: G1/S) and in the series on HeLa Kyoto [2] (cell cycle stage: mitosis) were 53.4 °C and 51.4 °C, respectively. Further, the thermal stability score in the series with HeLa Kyoto [3] (setting [5]) is 3.05; in the series with HeLa Kyoto [3] (cell cycle stage: mitosis) it was 0.952. Besides, the “solubility in G1/S (log2)” value in the series with HeLa Kyoto [4] was -0.11.

“MPKKKTGARKKAENRREREKQLRASRSTIDLAKHPCNASMECDKCQRRQKNRAFCYFCNSVQKLPICAQCGKTKCMMKSSDCVIKHAGVYSTGLAMVGAICDFCEAWVCHGRKCLSTHACACPLTDAECVECERGVWDHGGRIFSCSFCHNFLCEDDQFEHQASCQVLEAETFKCVSCNRLGQHSCLRCKACFCDDHTRSKVFKQEKGKQPPCPKCGHETQETKDLSMSTRSLKFGRQTGGEEGDGASGYDAYWKNLSSDKYGDTSYHDEEEDEYEAEDDEEEEDEGRKDSDTESSDLFTNLNLGRTYASGYAHYEEQEN [ZNF330]”: the “solubility change mitosis (log2)” value with HeLa Kyoto [1] is -0.0758. Moreover, the melting temperature was determined as 50.4 °C with HeLa Kyoto [2] (cell cycle stage: G1/S) and 50.9 °C with HeLa Kyoto [2] (cell cycle stage: mitosis). The thermal stability score in the series on HeLa Kyoto [3] (setting [5]) was found to be 3.84; in the series with HeLa Kyoto [3] (cell cycle stage: mitosis), 0.774. In the series with HeLa Kyoto [4], the “solubility in G1/S (log2)” value is -0.262.

As for “MPKLQGFEFWSRTLRGARHVVAPMVDQSELAWRLLSRRHGAQLCYTPMLHAQVFVRDANYRKENLYCEVCPEDRPLIVQFCANDPEVFVQAALLAQDYCDAIDLNLGCPQMIAKRGHYGAFLQDEWDLLQRMILLAHEKLSVPVTCKIRVFPEIDKTVRYAQMLEKAGCQLLTVHGRTKEQKGPLSGAASWEHIKAVRKAVAIPVFANGNIQCLQDVERCLRDTGVQGVMSAEGNLHNPALFEGRSPAVWELAEEYLDIVREHPCPLSYVRAHLFKLWHHTLQVHQELREELAKVKTLEGIAAVSQELKLRCQEEISRQEGAKPTGDLPFHWICQPYIRPGPREGSKEKAGARSKRALEEEEGGTEVLSKNKQKKQLRNPHKTFDPSLKPKYAKCDQCGNPKGNRCVFSLCRGCCKKRASKETADCPGHGLLFKTKLEKSLAWKEAQPELQEPQPAAPGTPGGFSEVMGSALA [DUS1L]”, in the series with HeLa Kyoto [1], the “solubility change mitosis (log2)” value is -0.169. Besides, the melting temperature with HeLa Kyoto [2] (cell cycle stage: G1/S) is 47.3 °C; in the series on HeLa Kyoto [2] (cell cycle stage: mitosis) it was 48.9 °C. Besides, the figures for the thermal stability score with HeLa Kyoto [3] (setting [5]) and with HeLa Kyoto [3] (cell cycle stage: mitosis) were 0.994 and 1.71, respectively. The “solubility in G1/S (log2)” value in the series on HeLa Kyoto [4] was 0.086.

Take “MPLAQLKEPWPLMELVPLDPENGQTSGEEAGLQPSKDEGVLKEISITHHVKAGSEKADPSHFELLKVLGQGSFGKVFLVRKVTRPDSGHLYAMKVLKKATLKVRDRVRTKMERDILADVNHPFVVKLHYAFQTEGKLYLILDFLRGGDLFTRLSKEVMFTEEDVKFYLAELALGLDHLHSLGIIYRDLKPENILLDEEGHIKLTDFGLSKEAIDHEKKAYSFCGTVEYMAPEVVNRQGHSHSADWWSYGVLMFEMLTGSLPFQGKDRKETMTLILKAKLGMPQFLSTEAQSLLRALFKRNPANRLGSGPDGAEEIKRHVFYSTIDWNKLYRREIKPPFKPAVAQPDDTFYFDTEFTSRTPKDSPGIPPSAGAHQLFRGFSFVATGLMEDDGKPRAPQAPLHSVVQQLHGKNLVFSDGYVVKETIGVGSYSECKRCVHKATNMEYAVKVIDKSKRDPSEEIEILLRYGQHPNIITLKDVYDDGKHVYLVTELMRGGELLDKILRQKFFSEREASFVLHTIGKTVEYLHSQGVVHRDLKPSNILYVDESGNPECLRICDFGFAKQLRAENGLLMTPCYTANFVAPEVLKRQGYDEGCDIWSLGILLYTMLAGYTPFANGPSDTPEEILTRIGSGKFTLSGGNWNTVSETAKDLVSKMLHVDPHQRLTAKQVLQHPWVTQKDKLPQSQLSHQDLQLVKGAMAATYSALNSSKPTPQLKPIESSILAQRRVRKLPSTTL [RPS6KA1]”: the “solubility change mitosis (log2)” value in the series with HeLa Kyoto [1] was -0.118. For the same sequence, the melting temperature with HeLa Kyoto [2] (cell cycle stage: G1/S) turned out to be 49.6 °C; with HeLa Kyoto [2] (cell cycle stage: mitosis), 50.2 °C. Besides, the thermal stability score in the series with HeLa Kyoto [3] (setting [5]) was found to be 0.39; with HeLa Kyoto [3] (cell cycle stage: mitosis) it was 1.42. Also, in the series on HeLa Kyoto [4], the “solubility in G1/S (log2)” value came out at 0.0398.

For the sequence “MPLGLGRRKKAPPLVENEEAEPGRGGLGVGEPGPLGGGGSGGPQMGLPPPPPALRPRLVFHTQLAHGSPTGRIEGFTNVKELYGKIAEAFRLPTAEVMFCTLNTHKVDMDKLLGGQIGLEDFIFAHVKGQRKEVEVFKSEDALGLTITDNGAGYAFIKRIKEGSVIDHIHLISVGDMIEAINGQSLLGCRHYEVARLLKELPRGRTFTLKLTEPRKAFDMISQRSAGGRPGSGPQLGTGRGTLRLRSRGPATVEDLPSAFEEKAIEKVDDLLESYMGIRDTELAATMVELGKDKRNPDELAEALDERLGDFAFPDEFVFDVWGAIGDAKVGRY [GIPC1]”, the “solubility change mitosis (log2)” value with HeLa Kyoto [1] was -0.156. In addition, the melting temperature in the series with HeLa Kyoto [2] (cell cycle stage: G1/S) was 49.5 °C; in the series on HeLa Kyoto [2] (cell cycle stage: mitosis) it was 48.7 °C. Besides, the values for the thermal stability score in the series with HeLa Kyoto [3] (setting [5]) and with HeLa Kyoto [3] (cell cycle stage: mitosis) were -0.363 and 1.49, respectively. Also, in the series with HeLa Kyoto [4], the “solubility in G1/S (log2)” value was 0.314.
